Laboratory results published in the domain aggregation screens of Martell et al. (2025).

test: soluble fraction after stress (log2 fold change); higher = more stays soluble; pooled small domains, quantitative proteomics; conditions: stress: 50 degC
How it was run: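 Pooled custom libraries of small protein domains were measured in a high-throughput format, with quantitative proteomics as the read-out. Each library was stressed at 50°C. Aggregation propensity is given as the base-two logarithm of the fold change in how much of each protein stays soluble after the stress. Higher values mean a larger share of the protein remains in solution.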

| Sequence | soluble fraction (log2) |
| --- | --- |
| HMDAMMQRLERLKELASSADGSKDYLILGPLRRDLAKLMALEDPKLRQGAEELDRKILAILS | -0.208 |
| HMLTEKEEEVMQILWDNGPLFVREILEFYPDPKPHYNTVSTVIRVLEEKNFASHKAYGNTYQYFP | -0.0146 |
| HMSRVKQERLNRFVEAFEAYFRSVHPGEIDVEYLKSDEFGDIFESILHRVMHTASEEKMHRFKKILLNEM | -2.13 |
| HMLDLPVKTINGKQYYYYTVKKGDTVYSLITRFGITRSDLVESNPAAADVLKTGDTLYFAVDKFG | -0.0825 |
| HMVNPHPVYRSWGLLYVEARDGDSLESIAKEFGFSVKKLAKYNEVPKDYPLEAGDIVYLEKKKK | -1.59 |
| HMASRTLSYSEFMSRVDSGDVTSVTLDGERIIMRTSNNQEFLSIKPEGEDISERLLAKNIEVRAEAQQ | -0.284 |
| HMKSKPRVPFGSLVEMGILKPGSILFDPKGKIKTKVMVDGSIKYKETEGSIHKVAAQIMGTESYNGWTYW | 0.355 |
| HMQNEIQQLAIDLIARAHKSGASDIHIVDTGTYTRIKFRVLGLLREDSQMEAETGRQMISTIYGILG | -0.135 |
| HMGTSIMIIIVKPETKKERVNDLIHWIESQNLRTHLSTGDYSTIIGVIGDTSKLDSELIRGLDIVENVKRV | -0.318 |
| HMSKPTLTDELLTLDLFEEIIKAKENAKGANKRFSLVGFLESKYIVDQEMLPKVNVKVTEYYNLTREN | -0.117 |
| HMATETELNLQLMRIIDELHTDHNTWGSRKITDYLRLQGYEINRKRIQRLMDVMDIQVVYPK | -1.98 |
| HMADLTEEQKTLFRLIRDLQPVSSKTLLENSGFTRSTQTRLLNGLIEKQIVIRTGNGPATRYSLR | -0.246 |
| HMQNNIEFTVLEEDAQKRLDVLLSEKTALSRSASASLIEEGGVLVNGRKEPKKYKPVRGEIITAILPE | -0.0707 |
| HMDLAENWKDDADITLAEYNAIRSRYKPGKLHRDTEFMIARDMLIRPETVLAIAHSRFSNVHTHPV | -0.945 |
| HMDETPESIFAKANELYPKYIKYFYTEQEYYSKVEEYINLYEFQKNSTYILGKDLEEFLEEYITNKQ | -0.517 |
| HMINLTKVGNFISIIKLQQIWTIDELLKKVDINYDELLYLLTILSDIYSKNGEYFFDFDIDAENNKILFNN | 0.42 |
| HMAEKVIVVADSITVGELAEKLNLPVTNLIGELFKNGIVSTINQRIDFETASIIVEELGLDVELERK | -0.0299 |
| HMFERINLIGVNGTTKKRSALVRLLDGEIVKIGVGDSLNGGQVVDISPATLTYLKSGKSIMLTLPK | -1.03 |
| HMKMNRELNQRQIKMLDYLSVNPKTTRKQYTKMMGISFMTSYRDIQELIDKAYIISKGQGRGTYYILAN | -0.569 |

| Sequence | soluble fraction (log2) |
| --- | --- |
| HMNAMFEKVLAAVMGFIGVSAFAKNADGKSEMTSDQEKRLTDKWGSKFVEEFKNDLLEYEKNGNAAEDAV | -0.264 |
| HMNITFAENIKQFRKAKSMSMEELGKRLGKAKSSISAWENGKRTPKINELKSISEALGVTISQLLGF | -1.13 |
| HMAIQGVRLYERTLETGDPWLDRPLSTLSTGTRLIILVRRGGDVLIPKGDTVLLAGDTLVINDS | -3.24 |
| HMIVVMAADSSREDLDLVQGRIEARGLRAQISQGVERIVIGVLGSLPPDLKDEMELLPGVREVLVIS | -0.405 |
| HMASIEPLKTSIRIIWYINGEKDSETLLNTPPTAANKANAQKIADMVEQQIQMGIFNRDAVFPSSPKRQ | -1.87 |
| HMDRRFFVAEENYKRLDVFLSERMEEFTRSRIKKLIDEGHVELNGKSAKAGAEIRPGDEVAAEIPEVKE | 0.147 |
| HMSPIQLKYNEYLIYIDEGKINTAEIHGNKITGKLKEGSEYVVTIYPELIASITEKLAENNVQTQLIQ | -0.0206 |
| HMVEKNALSEEIEGYVNKYGKDRSSLMPVLQAIQRKHSYINDFAQQEVARLLDIHPVEVFSVISFYSFLH | -1.79 |
| HMVVMKGKVKWFNKNKGYGFIITDDNKEYFVHWKSIVTNSPRELKVLEQDELVTFDLMETDKGIQAINII | -2.14 |
| HMNLPISDREKELLTLLSKGLLYKEIASKLDITIGTVKQHIHNIYHKLHVSNKTEALNLFNK | -0.685 |
| HMEKEFLFNGGKVVMNYEADRIQIMHDTKPGQDVITLMKKNGFKWSPFNKAWQRQITANAIYTTKHLINQ | -1.5 |
| HMGKPPNNRIHRAKRDYALNLVKEHYPDFGPTLAAEKLAEHHGFTVSRETLRKWMIEDGIWLSRKQRR | -0.123 |
| HMSEFSDRFRLLKDESGATLKELSEQLDITVPNLSYYMKGREPSYDILIKIADYFGVTTDWLIGRTDER | -0.547 |
| HMTDYKTNLQEFLQQDGEVEIEYKLLAEVGPSHARQFEVDVMMGDRVLGSGVGRNKKAAEQAAAKVALSKL | -0.124 |
| HMDISRMNLSQTERAVLSVLDSQPLHTEEIIASADLRAGAIHSALISLQLKGLIKQLPGNLYVK | -0.0722 |
| HMAMDITLPLAEVRRQSLEQIERQYLNELMSKHLGRINRAAEAAGITTRQLHKLLTKYSIRKEDFK | -0.673 |
| HMPSTVRVPDVAETSLSEAKKTIEESGLEVGAIHKVNNDTVKKNHVIKTSPTIGSAKKEGSAIDIYVSKG | -0.0128 |
| HMQELKWERNYKLVQDYIKQYGVLPSKNTKYANVSIGRWLTNQHELVKEDNLAPERFEKIKELDT | -0.233 |
| HMQHRSRALHLQEELVRRYYDQAIAPFMIFWEMKANVTLDQLKELRAVVSPSLNEHPYTKQLDEYIRLAE | -0.505 |
